Data from patent publication US20230093708A1, “PROTEIN NANOPARTICLE DESIGN AND APPLICATION” (Duke University, priority 2020, published 2023).
One block for each molecule: values may come before it. Non-standard residues stand in square brackets, D forms with d. Phe(4-N3) = [N-]=[N+]=Nc1ccc(C[C@H](N)C(=O)O)cc1

Legend:
[1] = biological target: αvβ3 integrin (Homo sapiens, UniProt P05106+P06756); assay: SPR of crosslinked and native pAzF diblock constructs; format: binding; conditions: crosslinked UAA5-40-based constructs
αvβ3 integrin, sequence (P06756 31-889 limits assumed): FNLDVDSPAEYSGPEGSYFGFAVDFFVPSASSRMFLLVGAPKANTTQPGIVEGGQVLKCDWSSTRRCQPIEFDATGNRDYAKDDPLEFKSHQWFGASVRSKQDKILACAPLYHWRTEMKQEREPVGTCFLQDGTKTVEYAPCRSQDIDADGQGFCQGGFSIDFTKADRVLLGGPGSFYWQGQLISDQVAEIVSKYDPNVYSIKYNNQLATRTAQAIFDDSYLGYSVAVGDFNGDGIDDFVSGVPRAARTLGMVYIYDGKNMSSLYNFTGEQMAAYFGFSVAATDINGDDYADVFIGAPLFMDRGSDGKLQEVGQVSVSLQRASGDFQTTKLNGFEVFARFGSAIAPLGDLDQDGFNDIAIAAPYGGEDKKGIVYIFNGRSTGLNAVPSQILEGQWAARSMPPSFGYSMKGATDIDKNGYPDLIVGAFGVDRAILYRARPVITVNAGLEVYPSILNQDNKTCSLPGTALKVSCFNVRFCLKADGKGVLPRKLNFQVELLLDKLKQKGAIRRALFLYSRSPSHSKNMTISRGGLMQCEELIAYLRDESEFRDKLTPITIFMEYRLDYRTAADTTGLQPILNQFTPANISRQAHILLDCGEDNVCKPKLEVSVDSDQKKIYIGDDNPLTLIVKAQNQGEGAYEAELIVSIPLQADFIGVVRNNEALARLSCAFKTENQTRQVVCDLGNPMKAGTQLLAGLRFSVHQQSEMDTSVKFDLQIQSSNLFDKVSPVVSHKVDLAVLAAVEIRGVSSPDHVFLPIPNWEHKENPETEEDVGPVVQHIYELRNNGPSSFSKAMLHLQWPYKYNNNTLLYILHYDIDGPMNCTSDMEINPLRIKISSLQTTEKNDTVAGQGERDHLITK
αvβ3 integrin, sequence (P06756 891-1048 partner limits assumed): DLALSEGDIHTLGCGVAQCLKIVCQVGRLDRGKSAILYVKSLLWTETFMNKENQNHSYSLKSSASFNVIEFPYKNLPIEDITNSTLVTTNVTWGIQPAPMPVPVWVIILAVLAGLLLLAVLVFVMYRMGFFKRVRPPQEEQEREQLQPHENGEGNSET
αvβ3 integrin, sequence (P05106 27-788): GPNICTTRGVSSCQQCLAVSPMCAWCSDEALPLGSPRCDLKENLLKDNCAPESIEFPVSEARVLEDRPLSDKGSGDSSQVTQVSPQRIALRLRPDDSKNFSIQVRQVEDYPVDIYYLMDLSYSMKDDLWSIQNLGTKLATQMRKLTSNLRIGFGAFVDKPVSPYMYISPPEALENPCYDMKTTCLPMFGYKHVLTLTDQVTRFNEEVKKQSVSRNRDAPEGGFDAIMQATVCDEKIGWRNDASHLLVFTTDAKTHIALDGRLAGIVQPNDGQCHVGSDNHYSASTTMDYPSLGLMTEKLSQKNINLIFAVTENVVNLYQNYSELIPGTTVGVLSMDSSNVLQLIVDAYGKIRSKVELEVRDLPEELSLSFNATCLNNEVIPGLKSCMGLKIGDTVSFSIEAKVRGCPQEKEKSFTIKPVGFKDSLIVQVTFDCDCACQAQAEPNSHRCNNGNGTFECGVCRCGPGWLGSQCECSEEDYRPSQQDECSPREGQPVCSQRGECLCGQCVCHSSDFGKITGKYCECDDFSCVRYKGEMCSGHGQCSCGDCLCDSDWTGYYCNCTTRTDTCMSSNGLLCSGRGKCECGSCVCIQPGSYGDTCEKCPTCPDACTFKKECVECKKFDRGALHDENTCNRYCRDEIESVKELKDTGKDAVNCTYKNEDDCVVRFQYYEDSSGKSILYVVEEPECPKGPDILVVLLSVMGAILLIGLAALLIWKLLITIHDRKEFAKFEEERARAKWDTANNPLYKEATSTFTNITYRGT
Experimental: (§1) Though we were interested in the downstream effects of the treatment with crosslinked nanoparticles, we also wanted to investigate how chemical crosslinking affected the binding to the cell membrane receptors themselves. For this, the binding affinities of crosslinked and native diblock architectures were evaluated using surface plasmon resonance (SPR).
To characterize the integrin-targeting constructs, we started by determining the KD values of the UAA5-40-based constructs. […] A closer look at the SPR sensograms describes the mechanism for this effect where the main reason for the increased KD for the ligands is a result of vastly different association rates (kon) rather than differences in koff.

[2] = DLS of native and crosslinked pAzF diblock constructs in PBS and GuHCl; format: physicochemical
Source text: We wanted to thoroughly investigate the effects of pAzF-introduction as well as nanoparticle crosslinking on nanoparticle self-assembly. For this, we started by characterizing solely our five different ELP/RLP diblock architectures without any C-terminal functionalization. After expression and purification of the diblock constructs using ITC, the pAzF-containing constructs were crosslinked in solution by exposure to UV irradiation and characterized using dynamic light scattering (DLS). […] Generally, both processes seem to have increased the measured radii with this effect being more pronounced for the worm-forming constructs.
Apart from changes in nanoparticle morphology we were particularly interested in the effect pAzF-crosslinking had on their stability. […] GuHCl is a well-known denaturing agent that disrupts any inter- and intramolecular electrostatic forces and completely breaks down the quaternary, tertiary and secondary structure of most known proteins. Covalent bonds—such as the ones formed by pAzF-crosslinking—however remain unaffected by GuHCl, thus, the addition of this denaturing agent was expected to give us insights on the stability of our crosslinked nanoparticles. […] All native samples on the other hand resorted to complete unimerization upon exposure to GuHCl. As the Rh values for the crosslinked particles in GuHCl were generally larger than in PBS, the DLS data furthermore indicates a swelling behavior in the presence of the denaturing agent. This can most probably be attributed to the RLP core which is assumed to be completely collapsed in PBS but will however try to reach an elongated, random-coil morphology in the presence of GuHCl.
The first step of the characterization process was to produce crosslinked particles for the functionalized diblock constructs and to analyze whether the attachment of the ligands had caused any significant changes in particle size. […] Whatever the reason was, it had no effect on the crosslinking process as the particles still remained stable after GuHCl exposure.
Dynamic light scattering of cross-linkable protein nanoparticles was performed. […] However, these crosslinked particles remain assembled, actually growing slightly in size due to chain swelling of the core and corona in this new buffer. These novel scaffolds support various targeting domains and assemble into nearly identically sized nanoparticles between […] in hydrodynamic radius.

[3] = Critical assembly concentration (CAC) by DLS dilution series; format: physicochemical
Experimental: Lastly, we also wanted to determine the critical assembly concentration (CAC) of the individual constructs. The Rh values were measured with DLS over a dilution series from the mid-micromolar down to the low nanomolar range. […] Curiously, the mere introduction of crosslinking sites seems to dramatically decrease the CAC. Generally, the worm-forming constructs had lower CACs than their spherical analogues and so do pAzF-containing constructs in comparison to analogous pAzF-free polypeptides.

[4] = Static and dynamic light scattering (SLS/DLS) of block co-polypeptides; format: physicochemical; conditions: for ρ / Nagg / Rg(nm) / Rh (nm): Table 9; for ρ: Rg/Rh; for Nagg / Rg(nm) / Rh (nm): UCST-UCST block co-polypeptides
Outline: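 Samples at 10 μM in PBS (140 mM NaCl, 10 mM phosphate, 3 mM KCl, pH 7.4), filtered 0.45 μm, measured at 15 °C over 30°–150° in 5° steps. Rh from cumulant fit of DLS, extrapolated to zero angle. Rg and MW from partial Zimm plots of SLS.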

[5] = Critical micelle concentration by pyrene I1/I3 fluorescence; format: physicochemical; conditions: inflection point of sigmoidal fit, triplicate data
Experimental: Key parameters of interest are the hydrophilicity of the corona-forming block, the hydrophilicity of the core block, the overall length of the co-polypeptide and the ratio of the two blocks. Parameters of evaluation are the size, morphology, stability, and thermoresponsive behavior. All measurements were made in 140 mM NaCl, 10 mM phosphate buffer, 3 mM KCl, pH 7.4 unless otherwise specified. Size was evaluated by the hydrodynamic radios (Rh) and radius of gyration (Rg) by dynamic light scattering (DLS) and static light scattering (SLS) respectively. Rg and Rh can be combined to yield the shape factor ρ=Rg/Rh, which provides a rough indication of the morphology of the scatterer. […] For an elongated scatterer, the shape factor depends upon the aspect ratio. A combination of temperature dependent turbidity and DLS was utilized to determine the phase behavior of the block co-polypeptides. Cryogenic transmission electron microscopy (Cryo-TEM) was utilized to evaluate the morphology and provide crucial insight into the hydration of the core/corona chains. Stability of the assembled nanostructure was determined by a shift in the I1/I3 fluorescent bands of pyrene as described previously.
All of these modifications to the core and corona chains prompted us to measure the critical micelle concentration (CMC) of these micelle constructs. […]

[6] = Temperature-programmed dynamic light scattering; format: physicochemical; conditions: upon cooling
Experimental: Temperature-programmed dynamic light scattering experiments were carried out using a Dynapro plate reader (Wyatt Technology; Santa Barbara, Calif.) with samples filtered through 0.45 μm Millex-GV filters. Data were collected at increments of 1° C., and the cumulant fit hydrodynamic radius was taken as the radius. The Tt was defined as the temperature at which aggregates of size hundreds of nanometers were formed.
Each block co-polypeptide was analyzed by dynamic light scattering (DLS) at several temperatures between 4° C. and 37° C. to determine the thermal stability of the micelles, and to determine their radius of hydration (Rh). […] In contrast, RLP40-ELP80 (SEQ ID NO: 84) and RLP40-ELP80-Fn3 (SEQ ID NO: 96) self-assembled into micelles with a Rh of 30 and 32 nm, respectively, between 20-37° C. (FIG. 15).
Therefore, to get a more accurate picture, we monitored the Rh as we slowly cooled the solution. We observed two different overall behaviors. [S]-40-[QHN]-40 (SEQ ID NO: 100) upon cooling underwent a clear unimer to micelle transition at ˜55° C. and a clear micelle to aggregate transition at 28° C. (FIG. 32B). A unimer to micelle transition that is temperature dependent is known as the critical micellization temperature (CMT). As we know from before, this UCST aggregation temperature is dependent on the solution concentration. [S]-80-[QHN]-40 (SEQ ID NO: 101) remained a micelle at the highest temperature we could measure with the instrument. Upon cooling the size of the aggregate increased slightly until a clear aggregate transition at 18° C.

[7] = biological target: DR5 (Homo sapiens, UniProt O14763); assay: SPR of DR5-targeting UAA5-40 constructs; format: binding; conditions: native construct, same concentration range
Experimental: as §1
This extremely good binding constant can be mainly attributed to the koff rate which is so low that it is most probably even below the limit of detection of the SPR instrument. As opposed to the integrin-targeting UAA5-40 particles, we however also observed very strong binding for the native Tn3 construct in the same concentration range (FIG. 53B). […] Principally, this was not a too unexpected result since we already knew that apoptosis induction via DR5-binding required downstream trimerization of the ligand-bound DR5 receptors in the cell membrane. Therefore, we had expected that the reported multivalency requirement for Tn3-action was at least partly stemming from this mechanistic effect rather than the DR5-binding itself.

Kd [1]: 20 nM
Molecule: GRGDSPAS: UAA5-40-K8D4-ligand construct with integrin-targeting GRGDSPAS ligand (SEQ ID NO: 76)

B1: UAA4-80: pAzF-containing worm-forming diblock construct (protein)
chain: QYPSDGRGQYPSDGRGQYPSDGRGQYPSDGRG[Phe(4-N3)]QYPSDGRGQYPSDGRGQYPSDGRGQYPSDGRG[Phe(4-N3)]QYPSDGRGQYPSDGRGQYPSDGRGQYPSDGRG[Phe(4-N3)]QYPSDGRGQYPSDGRGQYPSDGRGQYPSDGRG[Phe(4-N3)]QYPSDGRGQYPSDGRGQYPSDGRGQYPSDGRG[Phe(4-N3)]
RH (nm) ([2]; 15 μm in 7.2M GuHCl, crosslinked): 138.1 ± 12.5 nm
RH (nm) ([2]; 15 μm in 7.2M GuHCl, native (not crosslinked)): 7.4 ± 1.9 nm
RH (nm) ([2]; 15 μm in PBS, crosslinked): 86.2 ± 4.5 nm
RH (nm) ([2]; 15 μm in PBS, native (not crosslinked)): 55.7 ± 2.3 nm
CAC [3]: 30 to 50 nM

B2: [S]-40-[QHN]-40: block co-polypeptide of two UCST blocks, (GRGDSPYS)40-(GRGDQPHN)40 (protein)
chain: GRGDSPYSGRGDSPYSGRGDSPYSGRGDSPYSGRGDSPYSGRGDSPYSGRGDSPYSGRGDSPYSGRGDSPYSGRGDSPYSGRGDSPYSGRGDSPYSGRGDSPYSGRGDSPYSGRGDSPYSGRGDSPYSGRGDSPYSGRGDSPYSGRGDSPYSGRGDSPYSGRGDSPYSGRGDSPYSGRGDSPYSGRGDSPYSGRGDSPYSGRGDSPYSGRGDSPYSGRGDSPYSGRGDSPYSGRGDSPYSGRGDSPYSGRGDSPYSGRGDSPYSGRGDSPYSGRGDSPYSGRGDSPYSGRGDSPYSGRGDSPYSGRGDSPYSGRGDSPYSGRGDQPHNGRGDQPHNGRGDQPHNGRGDQPHNGRGDQPHNGRGDQPHNGRGDQPHNGRGDQPHNGRGDQPHNGRGDQPHNGRGDQPHNGRGDQPHNGRGDQPHNGRGDQPHNGRGDQPHNGRGDQPHNGRGDQPHNGRGDQPHNGRGDQPHNGRGDQPHNGRGDQPHNGRGDQPHNGRGDQPHNGRGDQPHNGRGDQPHNGRGDQPHNGRGDQPHNGRGDQPHNGRGDQPHNGRGDQPHNGRGDQPHNGRGDQPHNGRGDQPHNGRGDQPHNGRGDQPHNGRGDQPHNGRGDQPHNGRGDQPHNGRGDQPHNGRGDQPHN
aggregation number (Nagg) [4]: 43
hydrodynamic radius (Rh) [4]: 28.4 nm
radius of gyration (Rg) [4]: 35.1 nm
ρ [4]: 1.2
Nagg [4]: 43
Rg(nm) [4]: 35.1 nm
Rh (nm) [4]: 28.4 nm
critical micelle concentration (CMC) [5]: 3 µM
micelle to aggregate transition (UCST aggregation) [6]: 28 °C
unimer to micelle transition (critical micellization temperature, CMT) [6]: ~55 °C

Kd [7]: 0.25 nM
B3: Tn3: UAA5-40-K8D4-ligand construct with DR5-targeting Tn3 ligand (SEQ ID NO: 62) (protein)
chain: AIEVKDVTDTTALITWAKPWVDPPPLWGIELTYGIKDVPGDRTTIDLQQKHTAYSIGNLKPDTEYEVSLISFDPYGMRSKPAKETFTT

B4: [S]-80-[QHN]-40: block co-polypeptide of two UCST blocks, (GRGDSPYS)80-(GRGDQPHN)40 (protein)
chain: GRGDSPYSGRGDSPYSGRGDSPYSGRGDSPYSGRGDSPYSGRGDSPYSGRGDSPYSGRGDSPYSGRGDSPYSGRGDSPYSGRGDSPYSGRGDSPYSGRGDSPYSGRGDSPYSGRGDSPYSGRGDSPYSGRGDSPYSGRGDSPYSGRGDSPYSGRGDSPYSGRGDSPYSGRGDSPYSGRGDSPYSGRGDSPYSGRGDSPYSGRGDSPYSGRGDSPYSGRGDSPYSGRGDSPYSGRGDSPYSGRGDSPYSGRGDSPYSGRGDSPYSGRGDSPYSGRGDSPYSGRGDSPYSGRGDSPYSGRGDSPYSGRGDSPYSGRGDSPYSGRGDSPYSGRGDSPYSGRGDSPYSGRGDSPYSGRGDSPYSGRGDSPYSGRGDSPYSGRGDSPYSGRGDSPYSGRGDSPYSGRGDSPYSGRGDSPYSGRGDSPYSGRGDSPYSGRGDSPYSGRGDSPYSGRGDSPYSGRGDSPYSGRGDSPYSGRGDSPYSGRGDSPYSGRGDSPYSGRGDSPYSGRGDSPYSGRGDSPYSGRGDSPYSGRGDSPYSGRGDSPYSGRGDSPYSGRGDSPYSGRGDSPYSGRGDSPYSGRGDSPYSGRGDSPYSGRGDSPYSGRGDSPYSGRGDSPYSGRGDSPYSGRGDSPYSGRGDSPYSGRGDQPHNGRGDQPHNGRGDQPHNGRGDQPHNGRGDQPHNGRGDQPHNGRGDQPHNGRGDQPHNGRGDQPHNGRGDQPHNGRGDQPHNGRGDQPHNGRGDQPHNGRGDQPHNGRGDQPHNGRGDQPHNGRGDQPHNGRGDQPHNGRGDQPHNGRGDQPHNGRGDQPHNGRGDQPHNGRGDQPHNGRGDQPHNGRGDQPHNGRGDQPHNGRGDQPHNGRGDQPHNGRGDQPHNGRGDQPHNGRGDQPHNGRGDQPHNGRGDQPHNGRGDQPHNGRGDQPHNGRGDQPHNGRGDQPHNGRGDQPHNGRGDQPHNGRGDQPHN
shape factor / form factor (Rg/Rh) [4]: > 1
ρ [4]: 1.2
Nagg [4]: 1430
Rg(nm) [4]: 75.7 nm
Rh (nm) [4]: 62.8 nm
critical micelle concentration (CMC) [5]: 0.4 µM
micelle to aggregate transition (UCST aggregation) [6]: 18 °C
